Measurements published in paper PMC7414021, “Dodecin as carrier protein for immunizations and bioengineering applications” (Scientific Reports, 2020).

Experiments:
Test in all cases: SEC
[1] = target: mtDod-SpyT (Mycobacterium tuberculosis)
[2] = target: SpyT-mtDod (Mycobacterium tuberculosis)
[3] = target: mtDod-msfGFP-H8 (Mycobacterium tuberculosis | not stated)
[4] = target: SpyT-mtDod-SnpT (Mycobacterium tuberculosis)
[5] = target: mtDod-PAS2-SpyT (Mycobacterium tuberculosis)
[6] = target: SpyT-PAS2-mtDod (Mycobacterium tuberculosis)
[7] = target: mtDod-PAS-Met (Mycobacterium tuberculosis)
[8] = target: mtDod-GSG-Lys (Mycobacterium tuberculosis)

Question: For mtDod-SpyT, which stoichiometry N [1] is on record?
Answer: 12

Question: With SpyT-mtDod as the substance, how does the stoichiometry N [2] read?
Answer: 12

Question: mtDod-msfGFP-H8 was tested. Which stoichiometry N [3] did it give?
Answer: 12

Question: For SpyT-mtDod-SnpT, which stoichiometry N [4] is on record?
Answer: 12

Question: Which stoichiometry N [5] does the source give for mtDod-PAS2-SpyT here?
Answer: 12

Question: SpyT-PAS2-mtDod was tested. Which stoichiometry N [6] did it give?
Answer: 12

Question: With mtDod-PAS-Met as the substance, how does the stoichiometry N [7] read?
Answer: 12

Question: For mtDod-GSG-Lys, which stoichiometry N [8] is on record?
Answer: 12
